Target: the molecule itself
Assay: SEC; size-exclusion chromatography after elution from the His Trap Nickel column; estimated apparent molecular weight 113 kDa

B1: Human kynurenine aminotransferase 1 (hKYAT1), wild-type, recombinant (enzyme)
chain: MAKQLQARRLDGIDYNPWVEFVKLASEHDVVNLGQGFPDFPPPDFAVEAFQHAVSGDFMLNQYTKTFGYPPLTKILASFFGELLGQEIDPLRNVLVTVGGYGALFTAFQALVDEGDEVIIIEPFFDCYEPMTMMAGGRPVFVSLKPGPIQNGELGSSSNWQLDPMELAGKFTSRTKALVLNTPNNPLGKVFSREELELVASLCQQHDVVCITDEVYQWMVYDGHQHISIASLPGMWERTLTIGSAGKTFSATGWKVGWVLGPDHIMKHLRTVHQNSVFHCPTQSQAAVAESFEREQLLFRQPSSYFVQFPQAMQRCRDHMIRSLQSVGLKPIIPQGSYFLITDISDFKRKMPDLPGAVDEPYDRRFVKWMIKNKGLVAIPVSIFYSVPHQKHFDHYIRFCFVKDEATLQAMDEKLRKWKVEL
notes: human kynurenine aminotransferase 1 (KYAT1), wild type; The PDB entries are cited crystal structures of human KYAT1, not necessarily of this construct; also called KAT1; cysteine-S-conjugate beta-lyase 1; source: E. coli BL21, purified (His Trap Nickel column, size-exclusion chromatography)
  stoichiometry N: 2
